According to article PMC2735845 (Journal of molecular biology, 2009):

B1: E. coli RecQ (wild type, full-length, hexahistidine-tagged) (enzyme)
chain: not shown
B2: E. coli RecQ Q428A (enzyme)
chain: not shown
B3: E. coli RecQ R448A (enzyme)
chain: not shown
B4: E. coli RecQ S421A (enzyme)
chain: not shown

Assays:
[1] = target: T1, E. coli single-stranded DNA-binding protein (SSB), wild type (E. coli, UniProt P0AGE0 1-178); experiment: cell-based or functional assay
[2] = target: T1, E. coli single-stranded DNA-binding …; experiment: ammonium sulfate co-precipitation

Row | Binder | SSB binding in solution relative to wild type [2] [%] | other results
1 | B1 | – | Fold stimulation of RecQ helicase activity by SSB [1]: 9.7 fold
2 | B2 | ~3 | –
3 | B3 | – | co-precipitation with SSB relative to wild-type RecQ [2]: ~80%
4 | B4 | ~40 | –
